B1: OR4K15 (parent)
chain: GUUAACGGUCAUAGGCCAUGGAAACUAGGAGCACCAUUUCGCUGCCAGUGAAGAAAUGAACAAAGAAAAUCUGGGCCAGGCAGGCAUCAAAAGAAAUAGUCUUGCGCUCAACCAGAAAGUCUGUAAUCAUUUUAAGGGUA

This data set covers variants of B1. The data set can be described thus: self-cleavage, relative activity (ratio to wild type); higher = more cleavage; in vitro, sequencing; the parent is a self-cleaving ribozyme.
Take A5U A18G: the self-cleavage amounted to 1.83.

Consider G7A A114U, for which the self-cleavage is 0.06.

Turning to C6U G20U, the self-cleavage turned out to be 1.06.

Regarding A5U A68G, the self-cleavage was found to be 0.82.

G7U A59G: the self-cleavage amounted to 0.98.

For the variant U9A C88U, the self-cleavage came out at 0.82.

Consider A5U U122A, for which the self-cleavage amounted to 1.48.

Consider U9A A27G, for which the self-cleavage was found to be 0.47.

As to A5G U12C, the self-cleavage came out at 1.02.

Consider U9A A140U, for which the self-cleavage stood at 1.31.

U9A A55G: the self-cleavage is 0.81.

Take C6U A56G: the self-cleavage worked out at 0.64.

With G7U A60U, the self-cleavage is 2.4.

As to G7A A56G, the self-cleavage stood at 1.78.

On to G7A A59G, for which the self-cleavage stood at 1.46.

U9A A67U: the self-cleavage came out at 0.67.

Take C6U: the self-cleavage was 0.75.

C6A: the self-cleavage worked out at 1.28.

As to C6G, the self-cleavage was 1.83.

On to U9A A23U, for which the self-cleavage is 1.59.

Take U9C A96G: the self-cleavage was found to be 1.35.

With C6U G74A, the self-cleavage turned out to be 0.46.

U9A U49A: the self-cleavage is 1.

Turning to G8A U57A, the self-cleavage came to 2.18.

Take G7U A18U: the self-cleavage is 0.43.

Turning to A5U U132C, the self-cleavage was 1.4.

With C6U U120C, the self-cleavage stood at 0.33.

With G7A A68G, the self-cleavage turned out to be 1.92.

For the variant G7A U12C, the self-cleavage came to 1.33.

For A5G U19A, the self-cleavage turned out to be 0.53.

A5G U19C: the self-cleavage came out at 0.96.

For A5G U87C, the self-cleavage came out at 0.88.

Consider A5U A89G, for which the self-cleavage is 1.15.

For G8A A18G, the self-cleavage turned out to be 0.78.

Turning to G8A U102C, the self-cleavage stood at 2.44.

U9C A18C: the self-cleavage is 0.9.

On to U9C A18U, for which the self-cleavage is 1.36.

G8C: the self-cleavage worked out at 1.16.

On to G8A, for which the self-cleavage is 1.61.

Regarding G8U, the self-cleavage was found to be 1.49.

Take C6U A64G: the self-cleavage stood at 1.46.

For the variant U9A A36U, the self-cleavage was 1.2.

Turning to A5G U70C, the self-cleavage came to 0.82.

In the case of U9A A114G, the self-cleavage worked out at 0.33.

Regarding U9A A114U, the self-cleavage turned out to be 0.07.

Take A5G U132C: the self-cleavage came out at 0.89.

On to A5G U132A, for which the self-cleavage was found to be 0.6.

Regarding G7A A62C, the self-cleavage worked out at 1.41.

In the case of A5U A82U, the self-cleavage came out at 0.38.

As for U9A A118G, the self-cleavage was determined as 0.9.

As to U9A A125G, the self-cleavage stood at 0.76.

Turning to C6A U49C, the self-cleavage worked out at 0.74.

On to C6U A66G, for which the self-cleavage was found to be 1.33.

With U9A A24G, the self-cleavage was 1.29.

On to U9A A24C, for which the self-cleavage was 0.99.

For the variant U9C A30G, the self-cleavage is 1.13.

On to A5U A118G, for which the self-cleavage is 0.83.

For the variant U9C A98U, the self-cleavage came to 1.32.

In the case of U9C A59G, the self-cleavage was found to be 1.32.

As to A5U A110G, the self-cleavage was 0.29.

Turning to A5U A47C, the self-cleavage stood at 1.29.

Turning to C6U A117U, the self-cleavage was 1.1.

Turning to A5U A27G, the self-cleavage was determined as 2.05.

As to U9A A134G, the self-cleavage was determined as 1.66.

With G8A A22G, the self-cleavage was 1.39.

In the case of G8A U133G, the self-cleavage turned out to be 2.78.

For the variant U9A A91G, the self-cleavage is 0.37.

Consider C6U C46U, for which the self-cleavage worked out at 1.03.

Regarding C6U U100C, the self-cleavage stood at 1.18.

As for G8A A117G, the self-cleavage came to 2.27.

For the variant G8A A129U, the self-cleavage came to 1.63.

For the variant A5G U57C, the self-cleavage turned out to be 0.68.

Take G7A C40U: the self-cleavage was determined as 1.81.

For the variant A5U A11G, the self-cleavage was 1.49.

Take G7A A66G: the self-cleavage amounted to 1.18.

With U9C A11U, the self-cleavage was found to be 1.67.

With G8A A92G, the self-cleavage amounted to 1.56.

For G7C A47U, the self-cleavage came to 1.4.

For the variant U9A G41A, the self-cleavage is 1.34.

For the variant G7U A86G, the self-cleavage worked out at 1.64.

Consider U9A A59G, for which the self-cleavage came to 1.12.

For U9A A59U, the self-cleavage came to 1.81.

For G7A U70A, the self-cleavage was 1.94.

On to C6U A69G, for which the self-cleavage was 1.05.

As for C6U A94G, the self-cleavage was determined as 1.68.

Turning to C6A A89C, the self-cleavage came out at 1.1.

As for A5U A67U, the self-cleavage came out at 0.99.

Take A5U A67G: the self-cleavage came out at 1.6.

With G7A U139C, the self-cleavage is 1.82.

On to U9C A55U, for which the self-cleavage came to 1.16.

For the variant U9A U108A, the self-cleavage came out at 0.

On to C6U G79U, for which the self-cleavage was found to be 0.11.

Turning to U9C A86G, the self-cleavage worked out at 1.18.

In the case of U9A A18G, the self-cleavage stood at 1.79.

Consider G8A A95G, for which the self-cleavage worked out at 1.52.

Turning to C6A C10U, the self-cleavage came out at 0.25.

Take G7A A111G: the self-cleavage was found to be 0.03.

As for A5U U37G, the self-cleavage was determined as 1.

Regarding A5U U37C, the self-cleavage amounted to 0.72.

Turning to G7A U131C, the self-cleavage came to 1.36.

Turning to G7A U131G, the self-cleavage was 1.7.

As to G7U U108A, the self-cleavage turned out to be 0.06.

In the case of G7U U108C, the self-cleavage came to 0.02.

Turning to A5U U49A, the self-cleavage was 1.79.

Take A5U G15A: the self-cleavage amounted to 1.04.

For the variant G8U A94G, the self-cleavage came out at 1.98.

Turning to U9C A116G, the self-cleavage is 0.49.

In the case of U9C A116U, the self-cleavage worked out at 0.55.

Take U9A U87C: the self-cleavage is 0.85.

In the case of C6A U127C, the self-cleavage was found to be 0.49.

For the variant U9A U103C, the self-cleavage worked out at 0.49.

In the case of G7A A117G, the self-cleavage turned out to be 0.51.

As to U9C, the self-cleavage stood at 1.61.

As to U9A, the self-cleavage was 1.01.

As to A5U A69G, the self-cleavage was 0.36.

For A5U A52G, the self-cleavage stood at 1.18.

On to C6U U132C, for which the self-cleavage was 0.63.

For C6U U132A, the self-cleavage was found to be 0.56.

In the case of A5U U43G, the self-cleavage was found to be 1.19.

Regarding A5U U43C, the self-cleavage is 1.2.

On to U9A A92G, for which the self-cleavage came to 1.08.

In the case of G7A U87C, the self-cleavage turned out to be 1.25.

Turning to U9C A66G, the self-cleavage is 0.9.

Consider U9C A114G, for which the self-cleavage was determined as 0.64.

On to U9C A89U, for which the self-cleavage was 1.25.

Regarding U9C A89G, the self-cleavage worked out at 1.45.

Regarding U9A A22G, the self-cleavage came out at 1.7.

G7U U57C: the self-cleavage was found to be 1.41.

Take A5U U97C: the self-cleavage worked out at 0.

Regarding G7A U124C, the self-cleavage came to 1.03.

For the variant A5U A24G, the self-cleavage is 1.12.

As for U9C A62U, the self-cleavage was determined as 2.18.

Consider A5G U127A, for which the self-cleavage was 2.43.

With A5G U127C, the self-cleavage stood at 0.8.

Regarding U9C A51G, the self-cleavage came out at 1.27.

Consider C6A A111G, for which the self-cleavage is 0.08.

Turning to G7A G44U, the self-cleavage was 1.28.

On to U9A A30G, for which the self-cleavage is 0.98.

With U9A A64G, the self-cleavage turned out to be 1.1.

Regarding G7A A69U, the self-cleavage amounted to 1.79.

Regarding A5U, the self-cleavage came out at 1.1.

On to U9A U37C, for which the self-cleavage is 1.63.

On to A5U U70A, for which the self-cleavage stood at 1.23.

Consider A5G U120G, for which the self-cleavage was 0.39.

Consider A5G U139C, for which the self-cleavage is 1.1.

For A5G U139A, the self-cleavage came out at 1.6.

In the case of A5G U124C, the self-cleavage came to 0.58.

As to A5G U124A, the self-cleavage turned out to be 0.54.

Regarding C6A A64G, the self-cleavage worked out at 1.24.

In the case of U9A U139A, the self-cleavage worked out at 1.31.

Take G7U U103C: the self-cleavage worked out at 0.65.

Consider A5G U38G, for which the self-cleavage was 1.02.

As to G8A U103G, the self-cleavage was determined as 0.03.

In the case of G8A U103C, the self-cleavage is 1.61.

Consider A5U A116U, for which the self-cleavage was determined as 0.35.

Consider C6U A116G, for which the self-cleavage stood at 0.34.

With G7U G104A, the self-cleavage amounted to 0.05.

Consider G7A U108C, for which the self-cleavage stood at 0.

Turning to U9C A24G, the self-cleavage worked out at 1.33.

For the variant G8U A23G, the self-cleavage amounted to 1.93.

Regarding G7U U131C, the self-cleavage is 1.14.

As for A5U A60C, the self-cleavage came to 1.78.

With A5U A60G, the self-cleavage was 0.99.

With U9A U131C, the self-cleavage was found to be 0.4.

For the variant C6U A135G, the self-cleavage came out at 2.17.

For U9A G58U, the self-cleavage stood at 0.65.

A5U U38C: the self-cleavage stood at 1.27.

For the origin of these results see the RNAGym collection of RNA variant scans (doi:10.7554/elife.90254).
